Reference: the nanobody polyreactivity screen of Harvey et al. (2022)

Assay: yeast display, Sf9 membrane polyspecificity reagent, FACS + sequencing; frameworks hold sequencing errors
Summary of the method: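 Galactose induction of a Saccharomyces cerevisiae BJ5465 synthetic nanobody display library ran 36–48 hours. The cells were then stained for 1 hour at 4 °C with 10% biotinylated, detergent-solubilized Sf9 membrane reagent, pulled down on streptavidin microbeads and FACS-sorted into low and high (top ~1%) gates on expression and reagent-binding fluorescence. Labels for polyreactivity follow the gate of origin.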

Sequence | polyreactivity (PSR sort gate)
QVQLVESGGGLVQAGGSLRLSCAASGSIFAVYAMGWYRQAPGKERELVASISRTGTTNYADSVKGRFTISRDNAKNTVYLQMYSLKPEDTAVYYCAARPGSWYPSVPSYNYWGQGTQVTVSS | low polyreactivity
QVQLVESGGGLVQAGGSLRLSCAASGSIFAVYAMGWYRQAPGKERVLVAASSTDYADSVKGRFTISRDNAKNTVYLQMNSLKTEDTAVYYCAKVGFGIPGGFYYWGQGTQVTVSS | low polyreactivity
QVQLVESGGGLVQAGGSLRLSCAASGSIFAWNAMGWYRQAPGKERELVAAIRWSSGRTNYADSVKGRFTISRDNAKNTVYLQMNSLKPEDTAVYYCNARVVNYFRPRTGAREYDYWGQGTQVTVSS | high polyreactivity
QVQLVESGGGLVQAGGSLRLSCAASGSIFAWYAMGWYRQAPGKERELVAAIRFRGGSTYYADSVKGRFTISRDNAKNTVYLQMNSLKPEDTAVYYCAGYYWYRSYYWGQGTQVTVSS | high polyreactivity
QVQLVESGGGLVQAGGSLRLSCAASGSIFAYAMGWYRQAPGKQRELVAGISSSGGRTYYADSVKGRFTISRDNAKNSVYLQMNSLKPEDTAVYYCAARAQSPPYGYWGQGTQVTVSS | high polyreactivity
QVQLVESGGGLVQAGGSLRLSCAASGSIFAYNAMGWYRQAPGKVREFVAVITRSDDSTYADSVKGRFTISRDNAKNTVYLQMNSLKPEDTAVYYCAAQPFDIDGGYRVDYWRQGTQVTVSS | low polyreactivity
QVQLVESGGGLVQAGGSLRLSCAASGSIFAYNDMGWYRQAPGKERELVAAIRNGGRTNYADSVKGRFTISRDNAKNTVYLQMNSLKPEDTAVDYWAALNYYGSDYWGQGTQVTVSS | high polyreactivity
QVQLVESGGGLVQAGGSLRLSCAASGSIFAYYAMGWYRQAPGKERELVAAISRRGATTYYSDSVKGRFTISRDNAKNTVYLQMNSLKPEDTAVYYCAARTPYWTSYLRYWGQGTQVTVSS | high polyreactivity
QVQLVESGGGLVQAGGSLRLSCAASGSIFAYYAMGWYRQAPGKERELVAAISSGGSTNYADSVKGRFTISRDNAKNPVYLQMNSLKPEDTAVYDCAKRSYYGLTYYSWGQGTQVTVSS | low polyreactivity
QVQLVESGGGLVQAGGSLRLSCAASGSIFAYYAMGWYRQAPGKERELVARITYSTDGTYYADSVKGRFTISRDNAKNTVYLQMNSLKPEDTAVYYCAVDTWWGFKRYKFDYWGQGTQVTVSS | low polyreactivity
QVQLVESGGGLVQAGGSLRLSCAASGSIFAYYAMGWYRQAPGKERELVAYISRSGGITYYADSVKGRFTLSRDNAKNTVYLQMNSLKPVDTAVDYCAARYSVRPISIYPFDFGYWGQGTQVTVSS | low polyreactivity
QVQLVESGGGLVQAGGSLRLSCAASGSIFDDYAMGWYRKAPGKERELVAAITSGGSTYYADSVKGRFTISRDNAKNTVYLQMNSLKPEDTAVYYRATRYHWSSSFAPVGAYGYWGQGTQVTVSS | low polyreactivity
QVQLVESGGGLVQAGGSLRLSCAASGSIFDDYAMGWYRQAPGKERELVAAIDYTGGSTYYADSVKGRFTISRDNAKNTVYLQMNSLIPEDTAVYYCAAEVRVYYYLGGGYSWGQGTQVTVSS | low polyreactivity
QVQLVESGGGLVQAGGSLRLSCAASGSIFDDYAMGWYRQAPGKERELVAAISWSGGRPYYADSVKGRFTNSRDNAKNTVYLPMNSLKPEDTAVYYCAATTGVRSRRYYYWVQGTQVTVSS | low polyreactivity
QVQLVESGGGLVQAGGSLRLSCAASGSIFDDYAMGWYRQAPGKERELVAAISWSGGRTYYADSVKGRFTISRDNAKNTVYLQMNSLKPEDTAVYYCAASTGVRSRRYYYWGQGTQVTVSS | low polyreactivity
QVQLVESGGGLVQAGGSLRLSCAASGSIFDDYAMGWYRQAPGKERELVAAITSGGSTYYADSVKGRFTISLDNAKNTVYLQMNSLKPEDTAVYYRATRYHWSSSFAPVGAYGYWGQATQVTVSS | low polyreactivity

Sequence | polyreactivity (PSR sort gate)
QVQLVESGGGLVQAGGSLRLSCAASGSIFDENAMGWYRQAPGKERELVAAITSTDSTNYADSVKGRFTISRDNAKNTVYLQMNSLKPEDTAVYYCARDIKHATSYEALYYSDYDYWGQGTQVTVSS | low polyreactivity
QVQLVESGGGLVQAGGSLRLSCAASGSIFDFYSMGWYRQAPGKERELVAAISRGGSTYYADSVKGRFTISRDNAKNTVYFLMNSLKPEDTGVDYCAARDGVLVSWLWFWCDSPYGYWGQGTQGTVSS | low polyreactivity
QVQLVESGGGLVQAGGSLRLSCAASGSIFDFYVMGWYRQAPGKERELVAGISEGGDSTYYADSVKGRFTISRDNAKNTVYLQMNSLKPEDTAVYYCAKASAKGSYYWGQGTQVTVSS | low polyreactivity
QVQLVESGGGLVQAGGSLRLSCAASGSIFDGNAMGWYRQAPGKERELVAAITQSGCSTYYADSVKGRFTISRDNAKNTVYFQMNSLKPEDNAVYYCAADVPGVYPYDYWGQGTQVTVSS | low polyreactivity
QVQLVESGGGLVQAGGSLRLSCAASGSIFDGYAMGWNSQAPGKERELVAAISQRGGSTYYADSVKGRFTISRDNAKNTVYLQINSLKPEETAVYYCAADSSYGTRDYWGQGTQVTVSS | low polyreactivity
QVQLVESGGGLVQAGGSLRLSCAASGSIFDGYAMGWYTQAPGKERELVADINNGADTYYADSVKGRFTISRDNAKNTVYLQMYSLKPEDTAVYYCAARYGTDTDIQNVARYDYWGQGTQVTVSS | low polyreactivity
QVQLVESGGGLVQAGGSLRLSCAASGSIFDHNAMGWYRQAPGKEREFFARITSSGGGTYYADSVKGRFTISRDNAKNTVYLQMNSLKPEDTAVYYCAKTYYRQGARYPTMFYYWGQGTQVTVSS | low polyreactivity
QVQLVESGGGLVQAGGSLRLSCAASGSIFDHYAMGWYRQAPGKERELVAAIRTDGSTKYADSVKGRFTISRDNAKNTVYLQMNSLKPEDTAVYYCAATTGYTARWRNRYIYSYWGQGTEVTVSS | high polyreactivity
QVQLVESGGGLVQAGGSLRLSCAASGSIFDHYTMGWYRQAPGKERELVARISSRGGSTYYADSVKGRFTISRDNAKNTVYLQMNSLKPEDTAVYYCAAYKKLLYYKFGSWGQGTQVTVSS | high polyreactivity
QVQLVESGGGLVQAGGSLRLSCAASGSIFDIYAMAWYRQAPGKERELVADITSGGRTDYADSVKGRFTISRDNGKNTVYLQMNSLKPEDTAVYYCAADYIWDSVYWYISSYDYWGQGTKVTVSS | low polyreactivity
QVQLVESGGGLVQAGGSLRLSCAASGSIFDLNTMGWYRQAPGKERELVAAITWGGGSTYYADSVKGRFTISRDNAKNTVYLQMNSLKPEDTAVYYCNVTWSWGEKGRKAYGYWGQGTQVTVSS | low polyreactivity
QVQLVESGGGLVQAGGSLRLSCAASGSIFDLYAKGWYRQAPGKERELVAGISYSGGSTYYADSVKGRFTISRDNAKNTVYLQMNSLKPEDTAVYYCATAYYYHGGYYYPYDDYWGQGTQVTVSS | low polyreactivity
QVQLVESGGGLVQAGGSLRLSCAASGSIFDLYVMGWYRQAPGKERELVAAISLIGGSTSYADSVKGRFTISRDNEKNTVYLHRKSLKPEDTAVYYCAVEKFFRAEYDHWGLGTQVTVSS | low polyreactivity
QVQLVESGGGLVQAGGSLRLSCAASGSIFDNYAMGWYRPAPGKERELVAAITSGGSTYYADSVKGRFTISRDNAKNTVYLQMNSLKPEDTAVYYCAKDYKSIDDYWGQGTQVTVSS | low polyreactivity
QVQLVESGGGLVQAGGSLRLSCAASGSIFDPYAMGWYIQAPGKERELDAAITASGSSTYYADSVKGRFTISRDNAKNTVYLQMNSLKPEDTAVYYCAADRANWEYLLSWLGYDYWGQGTQVTVSS | low polyreactivity
